Data taken from patent US20090291890A1 (published 2009).
Where “and” joins values, the source holds several entries; their conditions need not be identical. Equal values may be shown once.

Tests used:
[1] = biological target: A122N/G124S/A175S-FVIIa (human)
[2] = biological target: Gla swap FIX/A122N/G124S/A175S/S222A/Q286R-FVIIa (human)
[3] = biological target: T239V/M298Q/H373F-FVIIa (human)
[4] = biological target: Gla swap FIX-FVIIa (human)
[5] = biological target: T128N/P129A/A175S/Q366V-FVIIa (human)
[6] = biological target: T239I/Q286R/M298Q/H373F-FVIIa (human)
[7] = biological target: {Gla swap FIX/Q44S}/Q286R/M298Q-FVIIa (human)
[8] = biological target: S52A/S60A/V158D/E296V/M298Q-FVIIa (human)
[9] = biological target: V158D/T239V/E296V/M298Q-FVIIa (human)
[10] = biological target: {Gla swap FIX/E40L}/Q286R/M298Q-FVIIa (human)
[11] = biological target: T128N/P129A/V158D/E296V/M298Q-FVIIa (human)
[12] = biological target: Gla swap FIX/T128N/P129A/A175S/S222A/Q286R-FVIIa (human)
[13] = biological target: T128N/P129A/T239I/Q286R/M298Q/H373F-FVIIa (human)
[14] = biological target: T128N/P129A/T239V/Q286R/M298Q/H373F-FVIIa (human)
[15] = biological target: H257A/Q286R-FVIIa (human)
[16] = biological target: M298Q/H373F-FVIIa (human)
[17] = biological target: S222A/T239V/H257A/Q286R/M298Q-FVIIa (human)
[18] = biological target: T239V/Q286R-FVIIa (human)
[19] = biological target: A122N/G124S/A175S/S222A/H257A/Q286R/M298Q-FVIIa (human)
[20] = biological target: T128N/P129A/A175S/S222A/H257A/Q286R/M298Q-FVIIa (human)
[21] = biological target: T128N/P129A-FVIIa (human)
[22] = biological target: T239I/Q286R/M298Q-FVIIa (human)
[23] = biological target: A122N/G124S/A175S/Q286R/M298Q-FVIIa (human)
[24] = biological target: T128N/P129A/A175S-FVIIa (human)
[25] = biological target: Gla swap FIX/S222A/T239V/Q286R-FVIIa (human)
[26] = biological target: Gla swap FIX/T128N/P129A/Q286R/M298Q-FVIIa (human)
[27] = biological target: GlaSwapFIX/S222A/T239I/Q286R-FVIIa (human)
[28] = biological target: Gla swap FIX/S222A/Q286R/M298Q-FVIIa (human)
[29] = biological target: T128N/P129A/M298Q-FVIIa (human)
[30] = biological target: T239I/M298Q/H373F-FVIIa (human)
[31] = biological target: K109N/A175S-FVIIa (human)
[32] = biological target: T239I/Q286R-FVIIa (human)

Chain of antithrombin III (P01008 33-464): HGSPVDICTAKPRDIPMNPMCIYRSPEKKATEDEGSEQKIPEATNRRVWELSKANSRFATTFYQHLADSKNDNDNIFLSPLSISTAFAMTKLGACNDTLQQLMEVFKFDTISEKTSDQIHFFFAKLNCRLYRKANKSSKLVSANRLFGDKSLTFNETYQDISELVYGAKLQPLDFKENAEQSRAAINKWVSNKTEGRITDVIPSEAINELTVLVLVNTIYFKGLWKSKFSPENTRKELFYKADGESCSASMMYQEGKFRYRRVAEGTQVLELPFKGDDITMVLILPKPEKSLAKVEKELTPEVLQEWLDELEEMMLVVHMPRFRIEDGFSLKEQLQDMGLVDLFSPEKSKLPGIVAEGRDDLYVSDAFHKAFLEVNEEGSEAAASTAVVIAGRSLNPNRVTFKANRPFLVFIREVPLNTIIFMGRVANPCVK

- K0.5 [1]: 1350 nM
- K0.5 [2]: 5.52 µM
- K0.5 [3]: 46.6 nM
- K0.5 [4]: 299 nM
- K0.5 [5]: 333 nM
- K0.5 [6]: 370 nM
- K0.5 [7]: 271 nM
- K0.5 [8]: 78.8 nM
- K0.5 [9]: 67.7 nM and 67.1 nM
- K0.5 [10]: 287 nM
- K0.5 [11]: 81.6 nM
- K0.5 [12]: 6.49 µM
- K0.5 [13]: 317 nM
- K0.5 (A175S-FVIIa (human)): 1330 nM
- K0.5 [14]: 121 nM
- K0.5 [15]: 2800 nM
- K0.5 [16]: 81.7 nM
- K0.5 [17]: 469 nM
- K0.5 [18]: 1790 nM
- K0.5 [19]: 2970 nM
- K0.5 [20]: 3.21 µM
- K0.5 [21]: 465 nM
- K0.5 [22]: 1610 nM
- K0.5 (H257S-FVIIa (human)): 723 nM
- K0.5 [23]: 1950 nM
- K0.5 (S222A-FVIIa (human)): 384 nM
- K0.5 [24]: 1390 nM
- K0.5 [25]: 2440 nM
- K0.5 [26]: 508 nM and 325 nM
- K0.5 [27]: 3.31 µM
- K0.5 [28]: 266 nM
- K0.5 [29]: 144 nM
- K0.5 [30]: 179 nM
- K0.5 [31]: 2030 nM
- K0.5 [32]: 5.82 µM
Substance: antithrombin III
